Experimental data from paper PMC3954793, “SHP-2 Binds to Caveolin-1 and Regulates Src Activity via Competitive Inhibition of CSK in Response to H2O2 in Astrocytes” (PLoS ONE, 2014).

Columns and labels:
caveolin-1/SHP-2 complex = assay: Co-immunoprecipitation of caveolin-1 and SHP-2; assay type: cell-based, human; conditions: HEK 293T cells transfected with WT or Y14A caveolin-1; 5 mM H2O2, 10 min
Description: (§1) cDNA encoding full-length human caveolin-1 was obtained from Thermo Scientific (Waltham, MA, USA). The Y14A caveolin-1 mutant was generated using a QuickChange site-directed mutagenesis kit (Stratagene, Santa Clara, CA, USA) using PCR. pCMV-SPORT6-caveolin-1 cDNA (25 ng) was used as a template and added to dNTP mix, Pfu buffer, Pfu turbo DNA polymerase and 125 ng of each of the mutagenic primers: sense, 5′-[…]-3′ and antisense, 5′-[…]-3′. Samples were then incubated at 95°C for 1 min, then for 20 cycles of 95°C for 1 min, 65°C for 4 min, and 68°C for 12 min. The methylated parental DNA template in the PCR product was digested using the DpnI (10 U) restriction enzyme for 3 h at 37°C. […] After mutagenesis, 1 µg of caveolin-1 wild-type (WT) or Y14A mutant DNA was transfected into HEK 293T cells using VIVAMAGIC transfection reagent (VIVAGEN, Seongnam, Korea) containing 10% FBS according to the manufacturer’s instructions for 24 h before treatment with 5 mM H2O2 for 10 min; the cells were then analyzed by immunoblotting.
(§2) Cells were plated and transfected with green fluorescence protein (GFP) siRNA (Samchully Pharm Co. Ltd., Seoul, Korea) as a control group and human CSK siRNA and human SHP-2 siRNA from Bioneer (Daejeon, Korea) using Lipofectamine RNAiMAX (Invitrogen, Carlsbad, CA, USA) according to the manufacturer’s instructions to achieve a final concentration of 300 nM. […]

caveolin-1/CSK complex = assay: Co-immunoprecipitation of caveolin-1 and CSK; assay type: cell-based, human; conditions: HEK 293T cells transfected with WT or Y14A caveolin-1; 5 mM H2O2, 10 min
Description: as §1, §2

B1: WT caveolin-1: full-length human wild-type caveolin-1 expressed in transfected HEK 293T cells (protein)
chain: MSGGKYVDSEGHLYTVPIREQGNIYKPNNKAMADELSEKQVYDAHTKEIDLVNRDPKHLNDDVVKIDFEDVIAEPEGTHSFDGIWKASFTTFTVTKYWFYRLLSALFGIPMALIWGIYFAILSFLHIWAVVPCIKSFLIEIQCISRVYSIYVHTVCDPLFEAVGKIFSNVRINLQKEI
modifications: phosphotyrosine at 14 after H2O2 treatment
notes: full-length human wild-type caveolin-1 expressed in transfected HEK 293T cells
interaction of SHP-2 with transfected caveolin-1 (caveolin-1/SHP-2 complex): SHP-2 interacted with WT caveolin-1, but not mutant caveolin-1, and only in the presence of H2O2
interaction between CSK and transfected caveolin-1 (caveolin-1/CSK complex): An interaction between CSK and WT caveolin-1, but not Y14A mutant caveolin-1, was observed in the presence of H2O2
